The values that follow come from US20230295293A1 (published 2023).

Test [1] concerns the target T1, Human FRα ECD-Avi-His (human, biotin on the Avi-tag (BirA) in the HTRF assays).
T1 construct: also called biotinylated human FRα; folate receptor alpha
Briefly: MOv19 HTRF epitope competition assay, geomean; IgG kept 2 weeks at 4°C; competitor MOv19. (In TR-FRET formats the signal depends on donor and acceptor labels being close together.)

Test [2] deals with T1, Human FRα ECD-Avi-His. The test can be described thus: MOv19 HTRF epitope competition assay; accelerated stability study.
The target of test [3] is T2, Cyno FRα ECD-Avi-His (cynomolgus monkey, biotin on the Avi-tag (BirA) in the HTRF assays).
T2 construct: Soluble region with C-terminal Avi and His tags
T2 sequence (chain, as listed by the source limits assumed): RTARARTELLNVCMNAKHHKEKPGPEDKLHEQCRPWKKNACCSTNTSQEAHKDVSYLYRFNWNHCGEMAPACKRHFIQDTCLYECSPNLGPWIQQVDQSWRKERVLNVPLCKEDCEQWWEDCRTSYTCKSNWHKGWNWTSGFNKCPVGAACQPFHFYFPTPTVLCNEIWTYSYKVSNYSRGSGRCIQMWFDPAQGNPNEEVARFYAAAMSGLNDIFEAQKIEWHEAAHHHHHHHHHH
Briefly: SPR (Biacore T200, 25°C); antibody captured on Protein A, FRα ECD as analyte. Here is the method:
(§1) Protein A was covalently immobilised to a CM5 chip surface using standard amine coupling techniques at a concentration of 50 μg/ml in 10 mM Sodium acetate, pH 4.0. The antibody was captured onto the Protein A surface in HBS-EP+ buffer, pH 7.4 at 10 μl/min to enable FRα ECD binding. The FRα ECD was serially diluted (0.4 nM-100 nM human FRα ECD; 0.8 nM-200 nM cyno FRα ECD; 30 nM-4000 nM mouse FRα ECD and rat FRα ECD) in HBS-EP+ buffer, pH 7.4 and flowed over the chip at 50 μl/min, with 2 minutes association and 8 minutes dissociation. The chip surface was fully regenerated with pulses of 3 M MgCl₂ to remove captured antibody together with any bound FRα ECD. Multiple buffer-only injections were made under the same conditions to allow for double reference subtraction of the final sensorgram sets, which were analysed using Biacore T200 Evaluation Software to derive equilibrium dissociation constants.

Test [4] addresses T1, Human FRα ECD-Avi-His. The description is as above. The protocol: as §1
The target of test [5] is T1, Human FRα ECD-Avi-His. Briefly: HTRF epitope competition assay, geomean n>2; competitor DyLight 650 labelled Comparator Antibody 3. Here is the method: (§2) HTRF assays were performed in 384-well white shallow well non-binding plates (Corning, 4513) in assay buffer containing phosphate-buffered saline (PBS) (Life Technologies, 14190), 0.100 v/v bovine serum albumin (BSA) (Sigma, A9576), and 0.4 M potassium fluoride (VWR International, 26820).
(§3) HTRF epitope competition assays were set up using a titration of test IgG, 1 nM streptavidin cryptate, biotinylated human FRα and DyLight 650 labelled IgG to assay volume of 10 μl. […] Assay plates were incubated for 3-4 h at room temperature prior to fluorescence measurement.

Test [6] concerns the target T2, Cyno FRα ECD-Avi-His. The test can be described thus: SPR (Biacore T200). The protocol:
as §1

Test [7] deals with T1, Human FRα ECD-Avi-His. The test can be described thus: MOv19 HTRF epitope competition assay, geomean; IgG kept 2 weeks at 45°C; competitor MOv19.
The target in test [8] is T1, Human FRα ECD-Avi-His. Briefly: HTRF epitope competition assay, geomean n>2; competitor DyLight 650 labelled Comparator Antibody 2. Here is the method:
as §2, §3

T1 sequence (chain, as listed by the source limits assumed): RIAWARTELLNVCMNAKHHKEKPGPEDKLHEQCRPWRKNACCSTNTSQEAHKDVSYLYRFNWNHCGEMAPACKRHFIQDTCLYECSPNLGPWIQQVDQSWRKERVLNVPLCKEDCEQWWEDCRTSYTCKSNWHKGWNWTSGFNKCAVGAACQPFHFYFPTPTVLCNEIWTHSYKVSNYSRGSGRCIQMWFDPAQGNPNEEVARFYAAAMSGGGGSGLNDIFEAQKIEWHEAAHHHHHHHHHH

B1: AB1370035 hIgG1 (antibody, V domains shown)
VH: QVQLQQSGPGLVKPSQTLSLTCAISGDSVSSNSAAWNWIRQSPSRGLEWLGRTYYRSNWYNDYTLSVKSRITVNPDTSKNQFSLQLNSVTPEDTAVYYCVRGVGRFDSWGQGTLVTVSS
VL: DIQMTQSPSTLSASVGDRVIITCRASQSISSWLAWYQQKPGKAPKLLIYKASSLESGVPSRFSGSGSGTEFTLTITSLQPDDFASYYCQEYKTYSIFTFGPGTKVDIKR
For orientation: IC50 means the concentration at which inhibition is half-maximal. For orientation: Kd means the free concentration of one partner at which half of the binding sites on the other are occupied at equilibrium, for simple one-to-one binding. The low end stands for tighter binding, the high end for weaker binding. By koff is commonly meant a measure of how fast the partners let go of each other. The low end stands for a long-lived complex, the high end for a short-lived complex. In general, kon refers to a measure of how fast the partners come together. A high value points to fast association. As to B1, the IC50 in test [1] is 0.945 nM; in test [5], 0.285 nM; in test [7], 1.16 nM; in test [8], 1.46 nM. In addition, in test [2], the “fold difference (IC50 45°C against 4°C)” value turned out to be 1.23 fold. The Kd in test [3] amounted to 1.1 nM; in test [4], 0.93 nM. Also, the koff in test [3] stood at 0.000508 s⁻¹; in test [4] it was 0.000527 s⁻¹. Further, the kon in test [3] came out at 475000 M⁻¹ s⁻¹; in test [4], 568000 M⁻¹ s⁻¹. Also, the “fold difference of affinity, cyno FRα against human FRα” value in test [6] is at most 2.5 fold.

B2: AB1370117 hIgG1 (antibody, V domains shown)
VH: QVQLQQSGPGLVKPSQTLSLTCAISGDSVSSDSATWNWIRQSPSRGLEWLGRTYYRSKWYSDYAVSVKSRITINPDTSKNQFSLQLNSVTPEDTAVYFCARGGAPFDYWGQGTLVTVSS
VL: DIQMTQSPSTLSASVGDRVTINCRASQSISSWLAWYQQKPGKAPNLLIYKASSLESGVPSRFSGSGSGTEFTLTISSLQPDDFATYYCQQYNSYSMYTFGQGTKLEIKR
B2: the IC50 in test [1] turned out to be 3.75 nM; in test [5], 1.83 nM; in test [7] it was 5.48 nM; in test [8], 9.33 nM. In test [2], the “fold difference (IC50 45°C against 4°C)” value is 1.46 fold. Besides, the Kd is 5.1 nM in test [3] and 2.6 nM in test [4]. In addition, the koff in test [3] was found to be 0.00187 s⁻¹; in test [4], 0.000762 s⁻¹. Further, the kon was determined as 364000 M⁻¹ s⁻¹ in test [3] and 293000 M⁻¹ s⁻¹ in test [4]. Further, the “fold difference of affinity, cyno FRα against human FRα” value in test [6] is at most 2.5 fold.
